Columns and labels:
[1] = biological target: inactivated toxoid B (TxB) (C. difficile, inactivated toxoid (how it was inactivated is not stated)); experiment: SPR; conditions: both partners purified
[2] = biological target: Affimer 4; experiment: SPR; biotinylated Affimer/nanobody immobilised on a streptavidin chip, titrated with serial dilutions of analyte; fit to 1:1 Langmuir model
Sequence of Affimer 4 (main, as listed by the source): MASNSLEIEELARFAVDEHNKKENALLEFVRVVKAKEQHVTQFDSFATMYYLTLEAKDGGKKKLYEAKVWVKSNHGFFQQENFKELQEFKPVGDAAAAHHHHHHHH

B1: Nanobody E3 (VHH)
chain: QVQLVESGGGLVQTGGSLRLSCASSGSIAGFETVTWSRQAPGKSLQWVASMTKTNNEIYSDSVKGRFIISRDNAKNTVYLQMNSLKPEDTGVYFCKGPELRGQGIQVTVSS
notes: also called TcdB nanobody E3
Kd [1]: 2.5 nM
koff [1]: 0.00025 s⁻¹
kon [1]: 100000 M⁻¹ s⁻¹

B2: C. difficile glutamate dehydrogenase (GDH) (enzyme)
chain: MSGKDVNVFEMAQSQVKNACDKLGMEPAVYELLKEPMRVIEVSIPVKMDDGSIKTFKGFRSQHNDAVGPTKGGIRFHQNVSRDEVKALSIWMTFKCSVTGIPYGGGKGGIIVDPSTLSQGELERLSRGYIDGIYKLIGEKVDVPAPDVNTNGQIMSWMVDEYNKLTGQSSIGVITGKPVEFGGSLGRTAATGFGVAVTAREAAAKLGIDMKKAKIAVQGIGNVGSYTVLNCEKLGGTVVAMAEWCKSEGSYAIYNENGLDGQAMLDYMKEHGNLLNFPGAKRISLEEFWASDVDIVIPAALENSITKEVAESIKAKLVCEAANGPTTPEADEVFAERGIVLTPDILTNAGGVTVSYFEWVQNLYGYYWSEEEVEQKEEIAMVKAFESIWKIKEEYNVTMREAAYMHSIKKVAEAMKLRGWY
Kd [2]: 19 nM
koff [2]: 0.00081 s⁻¹
kon [2]: 44000 M⁻¹ s⁻¹

B3: Nanobody 7F (VHH)
VHH: QVQLVESGGGLVEAGGSLRLSCVVTGSSFSTSTMAWYRQPPGKQREWVASFTSGGAIKYTDSVKGRFTMSRDNAKKMTYLQMENLKPEDTAVYYCALHNAVSGSSWGRGTQVTVSS
notes: also called TcdB nanobody 7F
Kd [1]: 33 nM
koff [1]: 0.0009 s⁻¹
kon [1]: 28000 M⁻¹ s⁻¹

From article PMC9201815, “Rapid Quantification of C. difficile Glutamate Dehydrogenase and Toxin B (TcdB) with a NanoBiT Split-Luciferase Assay” (Analytical Chemistry, 2022)
